The results in this text go back to article PMC5811216, “Cleavage activates Dispatched for Sonic Hedgehog ligand release” (eLife, 2018).

Substitutions are numbered along the chain they refer to. Numbers in names are those of the source.

The data set deals with the molecule itself. Nature of the data set: native gel or EMSA; NIH3T3 lysates in NativePAGE sample buffer with 1% DDM, Benzonase treated; 4-20% NativePAGE Bis-Tris gel; anti-HA western blot.

B1: DispHA, wild-type murine Dispatched 1 with a carboxyl-terminal HA tag (natural protein, mouse, UniProt Q3TDN0 1-1521, looked up)
chain: MAVISGSDSVLLSNGSISTSTSNPSPLSPSDGDLPAQHLGPRETPRTKASPNGCLQLNGTVKSSFLPLDNQRTPQTPTQCCHPCPYHHPVSSHSNHQECHPEAGLAASPALASCRMQPHSEYSASLCPNHSPVYQAAHCLQPSPSFCLHHPWPDHFQHQPVRQHLTIIRPSRPFKFPRSYAALLADWPVVVLGMCTLLIVVCALVGVLVPELPDFSDPLLGFEPRGTTIGQRLVTWNNMMRNTGYKATLANYPYKYAEEQARSHRDDRWSDDHHERERREVDWNFQKDSFFCDVPSDGYSRVVFASAGGETLWNLPAIKSMCDVDNSRIRSHPQFSDLCQRTTAVSCCPSWTLGNYIAILNNRSSCQKIVERDVSHTLKLLRTCAKHYQNGTLGPDCWDKAARRKDQLKCTNVPRKCTKYNAVYQILHYLVDKDFMTPKTADYAVPALKYSMLFSPTEKGESMMNIYLDNFENWNSSDGITTVTGIEFGIKHSLFQDYLLMDTVYPAIAIAIVLLIMCVYTKSMFITLMTMFAIISSLIVSYFLYRVVFNFEFFPFMNLTALIILVGIGADDAFVLCDVWNYTKFDKPRAETSEAVSVTLQHAALSMFVTSFTTAAAFYANYVSNITAIRCFGVYAGTAILVNYVLMVTWLPAVIVLHERYLLNIFTCFRKPQPQAYDKSCWAVLCQKCRRVLFAVSEASRIFFEKVLPCIVIKFRYLWLIWFLALTVGGAYIVCVNPKMKLPSLELSEFQVFRSSHPFERYDAEFKKLFMFERVHHGEELHMPITVIWGVSPEDSGDPLNPKSKGELTLDSTFNIASPASQAWILHFCQKLRNQTFFHQTEQQDFTSCFIETFKQWMENQDCDEPALYPCCSHCSFPYKQEVFELCIKKAIMELDRSTGYHLNNKTPGPRFDINDTIRAVVLEFQSTFLFTLAYEKMQQFYKEVDSWISHELSSAPEGLSRGWFVSNLEFYDLQDSLSDGTLIAMGLSVAVAFSVMLLTTWNIIISLYAIVSIAGTIFVTVGSLVLLGWELNVLESVTISVAVGLSVDFAVHYGVAYRLAPDPDREGKVIFSLSRMGSAIAMAALTTFVAGAMMMPSTVLAYTQLGTFMMLVMCVSWAFATFFFQCLCRCLGPQGTCGQIPFPTKLQCSPFSHTLSARPGDRGPSKTHAASAYSVDARGQKSQLEHEFYELQPLASHSCTSSEKTTYEEPHTCSEFFNGQAKNLRMPVPAAYSSELTKSPSSEPGSALLQSCLEQDTVCHFSLNPRCNCRDAYTHLQYGLPEIHCQQMGDSLCHKCASTAGGFVQIQSSVAPLKASHQAAEGLLHPAQHMLPPGMQNSRPRNFFLHSVQHFQAQENLGRTSTHSTDERLPRTAELSPPPSDSRSTESFQRACCHPENNQRRLCKSRDPGDTEGSGGTKSKVSGLPNQTDKEEKQVEPSLLQTDETVNSEHLNHNESNFTFSHLPGEAGCRSCPNSPQSCRSIMRSKCGTEDCQTPNLEANVPAVPTHSDLSGESLLIKTL
notes: Dispatched 1 (Disp), mouse; Disp1 cDNA from RIKEN introduced into Not1-Xba1 sites of pCDNA3; The lysate holds both Disp175 and the cleaved Disp145; On the native gel there was a ~480 kDa fraction (trimer) and ~750 kDa fractions; also called pCDNA3 Dispatched WT HA; pCDNA-DispHA; source: NIH3T3, transfected, in lysate (1% DDM); not shown: HA, C-terminal, kept
As for B1, the “stoichiometry N” value came to 3.

B2: DispCSHA, cleavage site mutant (R279A, E280A) of murine Dispatched 1 with a carboxyl-terminal HA tag (natural protein, mouse, UniProt Q3TDN0 1-1521, looked up)
chain: B1 chain with R279A, E280A
notes: Dispatched 1 (Disp), mouse; Disp1 cDNA from RIKEN in pCDNA3; convertase motif disrupted by R279A, E280A; also called DispHA-CS; pCDNA-DispCSHA; source: NIH3T3, transfected, in lysate (1% DDM); not shown: HA, C-terminal, kept
On to B2, for which the “stoichiometry N” value is 3.

Broadly, the stoichiometry N is the number of molecules, sites or subunits per partner or assembly.
